Test results taken from patent US20250011391A1, “ULTRA LIGHT-SENSITIVE NEUROPSIN-BASED OPTOGENETIC TOOL FOR ACTIVATING G q-COUPLED SIGNALING AND/OR ACTIVATING CELLS” (GENANS BIOTECHNOLOGY CO., LTD, priority 2021, published 2025).

Legend:
[1] = system: primary astrocyte cultures; assay: Light-induced Ca2+ transients in cOpn5-expressing primary astrocyte cultures; format: cell-based, mouse; details: cOpn5-expressing astrocytes; Calbryte 630 AM
Excerpt: cOpn5 optogenetics allows spatially precise control of cellular activity. Restricting brief light stimulation (63 ms) into a subcellular region of individual cOpn5-expressing HEK 293T cell results in the immediate activation of single cell. […] The findings are extended into primary cell cultures. cOpn5 is expressed in primary astrocyte cultures prepared from the neonatal mouse brain with AAV vectors for bicistronic expression of cOpn5 and the EGFP marker protein (FIG. 5a). […] If the light stimulation (63 ms) is precisely restricted to only subcellular region of an individual cOpn5-expressing astrocyte, Ca^2+ signal propagation within the individual cell is observed (FIG. 3f). Resembling the tests in HEK 293T cells, wave-like propagation of Ca^2+ signals from the stimulated astrocyte that proceeded gradually to more distal, non-stimulated, astrocytes is observed (FIG. 3g, h).
a, cOpn5 was expressed in cultured primary astrocytes using AAV-cOpn5-T2A-EGFP (green). Astrocyte identity was confirmed by GFAP immunostaining (red). Scale bar, 20 μm.
b, Pseudocolor images of the baseline and peak Ca^2+ signals following light stimulation of cOpn5-expressing astrocytes. Scale bar, 20 μm.
c, Plot of Ca^2+ signals and heat map representation of Ca^2+ signals across trials (n=25 cells).

[2] = system: LH GABAergic neurons of VGAT-Cre mice; assay: Optogenetics and food intake assay; format: in vivo, mouse; details: 20 Hz; 5 ms/pulse; 473 nm; 0.75 mW; vs EGFP-expressing control mice
Method: (§1) Finally, the utility of cOpn5-mediated optogenetics for modulating animal behavior is assessed. The lateral hypothalamus (LH) is a brain center with known functions in reward processing and feeding behaviors^54,55. cOpn5 is expressed in the LH GABAergic neurons of VGAT-Cre mice and implanted optical fibers to deliver light pulses into the LH of freely behaving mice (FIG. 8g). […] Electrophysiological recordings on LH and ZI cOpn5-expressing neurons are performed to characterize the response profiles. The injection sites and placement of optical fibers are confirmed by whole brain slices (FIG. 10a-c). […] Thus, cOpn5 is effective for rapidly, accurately, and reversibly modulating animal behavioral states.
g, Schematic diagram of the experimental setup for optogenetics and food intake assay. cOpn5-EGFP was expressed in GABAergic neurons within the lateral hypothalamus (LH) of VGAT-Cre mice. EGFP was expressed as a control.
h, Summary of light-induced (20 Hz; 5 ms/pulse; 473 nm; 0.75 mW output from the fiber tip), cOpn5-mediated activation of eating behaviors. ***P=0.0003; n.s., non-significant; n=6 mice; unpaired t test. Error bars indicate S.E.M.

[3] = system: GABA neurons in the zona incerta (ZI) of VGAT-Cre mice; assay: Food-foraging behavior task; format: in vivo, mouse; details: vs EGFP-expressing mice
Method: as §1
i, Schematic diagram of the experimental setup for food foraging behavior. High-fat food pellets were used. cOpn5-EGFP was expressed in GABAergic neurons within the zonal incerta (ZI) of VGAT-Cre mice. EGFP was expressed as a control.
j, Summary of cOpn5-mediated food foraging behaviors. Foraging time percentage was calculated upon receiving light stimulation until the mouse found the hidden food. ****P<0.0001; n=6 mice; unpaired t test. Error bars indicate S.E.M.

[4] = system: MARCKS protein, a well-established target of PKC; assay: Phosphorylation of MARCKS in cOpn5-expressing HEK 293T cells; format: cell-based; details: normalized to α-tubulin; PKC activity-dependent
Method: (§2) Whether heterologous expression of the Opn5 orthologs from chicken, turtles, humans and mice (which share 80-90% protein sequence identity) have the capacity to mediate blue light-induced Gq signaling activation within HEK 293T cells is tested (FIG. 1a and table 7). Blue light for stimulation and the red intracellular calcium indicator Calbryte™ 630 AM dye are used to monitor the relative Ca^2+ response (FIG. 1b).
g, Phosphorylation of MARCKS in cOpn5-expressing HEK 293T cells in the control group (no light stimulation), the light stimulation group, and light+staurosporine (ST, PKC inhibitor) group. The amount of p-MARCKS in the same fraction was normalized to the amount of α-tubulin. **P=0.0096, ***P=0.0004; Tukey's multiple comparisons test.
e, One representative of phosphorylation of MARCKS in cOpn5-expressing HEK 293T cells in the control group (no light stimulation), the light stimulation group, and light+staurosporine group. The amount of p-MARCKS in the same fraction was normalized to the amount of α-tubulin.

mouse cortical neurons = assay: Ca2+ imaging (jRGECO1a) of cOpn5-expressing neurons in brain slice preparations; format: cell-based; details: 10 s; 100 μW/mm2; 473 nm
Excerpt: The application of cOpn5-mediated optogenetics in neurons is explored. Whether cOpn5 could mediate light-induced Ca^2+ signals is firstly examined. Using AAV and the pan-neuronal SYN promoter, cOpn5 and the genetically-encoded Ca^2+ sensor jRGECOla are expressed in mouse cortical neurons (FIG. 8a). […] Thus, cOpn5 also enables light-induced activation in neurons.
b, Pseudocolor images show Ca^2+ signals before and after light stimulation (10 s; 100 μW/mm2; 473 nm). Scale bar, 10 μm.

[5] = system: GCaMP7b-expressing neurons in mouse S1 cortex; assay: In vivo two-photon neuron calcium imaging following cOpn5-mediated astrocyte activation; details: cOpn5-mediated astrocytes activation; N=193 neurons
Method: Astrocytes release ATP and other gliotransmitters also act on neuronal receptors to modulate neuron activity. Two-photon imaging of neuronal Ca^2+ signals with cOpn5-mediated astrocytes activation from head-fixed awake, behaving mice, is performed (FIG. 6e). cOpn5-expressing cells (n=406) colocalize with GFAP-staining (n=397), but not GCaMP7b-expressing neurons (FIG. 6f).
e, Schematic diagram of the experimental setup for in vivo two-photon imaging (920 nm) of neuron calcium imaging following cOpn5-mediated astrocyte activation. Images show the expression of cOpn5 (red) in astrocytes and the expression of a GCaMP7b (green) in […] the mouse S1 cortex. Scale bar, 100 μm.
h, Calcium events analysis of GCaMP7b-expressing neurons in 0-5 min and 15-20 min, coupled with cOpn5-mediated astrocytes activation. N=193 neurons, ****P<0.0001, Unpaired t test.

Gi signaling = assay: cAMP levels in Opn5-expressing HEK 293T cells after photostimulation; format: cell-based; details: without additional retinal; 10 μM forskolin preincubation
Method: as §2
f, Light has no effect on cAMP levels (10 μM forskolin preincubation) in cOpn5-expressing HEK 293T cells without additional retinal in the medium (left panel).

B1: cOpn5: Chicken (Gallus gallus) Opn5 (neuropsin) ortholog, SEQ ID NO:1, GenBank NM_001130743.1 (protein, listed as Gallus lafayetii)
chain: MSGMASDCNSSSQEEYLPHYVQQEDPFASKLSREADIIAGFYLTVIGILSTLGNGYVIFMSSKRKKKLRPAEIMTVNLAVCDLGISVVGKPFSIISFFSHRWIFGWMGCRWYGWAGFFFGCGSLITMTAVSLDRYLKICHLAYGTWLKRHHAFICLALIWAYATFWATVPFAGVGSYAPEPFGTSCTLDWWLAQASVAGQAFVLSILFFCLLFPTAVIVFSYVKIILKVKSSTKEVAHYDTRIQNSHILEMKLTKVAMLICAGFLIAWIPYAVVSVWSAFGQPDSVPIQFSVVPTLLAKSAAMYNPIIYQVIDCKFACCRSGGPKTLQKKSSLKESRMYTLSSHRDSAALSGTQLEV
B1 was tested, and the “Ca2+ transients on blue light illumination” value [1] was ~8 ΔF/F, the “food intake on light stimulation” value [2] was “significant increase in food intake” and the “time of foraging high fat food pellets on repeated light stimulation” value [3] was “significantly increase in the time of foraging”. The “blue light-triggered phosphorylation of MARCKS protein” value [4] was “triggers the phosphorylation of MARCKS protein”, the “Ca2+ transients in neurons on blue light pulses” value (mouse cortical neurons) was “reliably evokes Ca^2+ transients” and the “neuron activity, 15-20 min compared to 0-5 min” value [5] was “significantly elevates neuron activity”. The “effect of light on cAMP levels” value (Gi signaling) was “has no such effect”.
